Assay results as given in US20100021473A1 (DOMANTIS, published 2010).
Where a chain is given by its changes, count along the chain named. One block for each binder: values may come before it.

Legend:
CD138 on cells [1] = molecular target: T1, CD138 on cells (UniProt P18827 23-310); assay: FACS dot plot (FSC-H against FL1-H) on H647 cells (CD38-/CD138+), ligand at 50 nM
T1 construct: whole, on cells; Endogenous CD138 on cell lines used in FACS; also called DOM12; syndecan-1
T1 sequence (looked up): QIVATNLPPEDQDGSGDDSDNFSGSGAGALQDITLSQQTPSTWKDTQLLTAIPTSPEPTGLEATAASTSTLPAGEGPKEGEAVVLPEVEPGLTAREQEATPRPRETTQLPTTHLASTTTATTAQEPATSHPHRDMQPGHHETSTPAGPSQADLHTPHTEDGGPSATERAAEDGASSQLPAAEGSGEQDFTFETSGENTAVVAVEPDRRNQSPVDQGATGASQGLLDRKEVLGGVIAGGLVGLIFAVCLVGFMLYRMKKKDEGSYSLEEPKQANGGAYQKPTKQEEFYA

[2] = molecular target: T2, CD38 and CD138 co-expressed on cells (CD38+/CD138+ double positive cells) (UniProt P28907 1-300; P18827 23-310); assay: FACS cell binding titration on OPM2 cells (CD38+/CD138+), arithmetic mean fluorescence. The table prints no unit; the unit is taken from the x axis 'log conc in nm' (nanomolar).
T2 construct: whole, on cells; Two separate membrane proteins on the same cell, not a complex; also called RPMI8226; OPM2
Description: (§1) The determination of cell binding by FACS was carried out as follows: cells were centrifuged at 250 g for 5 minutes and the growth medium was removed. The cells were resuspended in FACS incubation buffer at 4° C. at a density of 2×10⁶ cells/ml. The cells were blocked by incubating for 15 minutes at 4° C. in FACS incubation buffer. Fifty microliters of 2× stock of primary antibody (anti-CD38 FITC, anti-CD138 FITC or mIgG1 FITC conjugated isotype control (all BD Biosciences) was added; or dAb was added to cells in FACS incubation buffer and incubated for 30-60 minutes at 4° C. The cells were then washed once in FACS incubation buffer. One hundred microliters of secondary antibody (rabbit anti-Vk) was added to cells in FACS incubation buffer and incubated 30-60 minutes at 4° C. The cells were washed once in FACS incubation buffer. Then 100 ul of 1× tertiary antibody was added to the cells in FACS incubation buffer and incubated for 30-60 mins at 4° C. (for dAbs the tertiary antibody is anti-rabbit FITC (Sigma)). The cells were washed twice in FACS incubation buffer. The cell pellet was resuspend in 200 ul FACS incubation buffer+viable cell marker (BD Viaprobe). The cells were then analyzed by flow cytometry.
Anti-CD38 and anti-CD138 affinity matured dAbs were paired to create dual specific ligands by cloning an anti-CD38 dAb and an anti-CD138 dAb into a dual expression vector. To determine if the increased affinity of the monomers was reflected in increased binding affinity of the dual specific ligand, a range of the affinity matured anti-CD38 dAbs were paired with the anti-CD138 dAb DOM12-45, a range of affinity matured anti-CD138 dAbs were paired with anti-CD38 dAbs, and a range of affinity matured anti-CD38 dAbs and affinity matured anti-CD138 dAbs were paired. All dual specific ligands were expressed in E. coli and purified using protein L agarose followed by Resource S cation exchange chromatography when required. The binding affinity of the dual specific ligands was assessed by FACS as described previously. In this study, a range of concentrations was used to allow determination of EC50.

[3] = molecular target: T2, CD38 and CD138 co-expressed on cells …; assay: FACS cell binding titration on OPM2 cells (CD38+/CD138+), arithmetic mean fluorescence against log conc in nm
CD138 on cells [4] = molecular target: T1, CD138 on cells; assay: FACS on HUVEC cells (CD38-/CD138+)
Description: (§2) All dAbs were analysed by FACS on antigen positive and negative cell lines using the following method.
as §1

[5] = molecular target: T3, CD38 immobilised on Biacore CM5 chip (UniProt P28907 43-300, limits assumed); assay: SPR (Biacore), CD38 immobilised on CM5 chip
T3 construct: also called DOM11
Description: (§3) Anti-CD38, anti-CEA and anti-CD56 dAbs that were identified as FACS positive clones were in addition analysed by Biacore using the following procedure. The CM5 chip surface was activated by flushing 1:1 EDC/NHS (0.4M1-ethyl-3-(3-dimenthylaminopropyl)-carbodiimide in water; 0.1 M N-hydroxysuccinimide in water) at a flow rate of 5 uL/min for 10 minute contact time. CD38 was immobilised at 500 nM in Acetate buffer pH4 at 5 uL/min this was repeated until the RUs reached between 500 and 1000 (low density). CEA and CD56 were coupled in acetate buffer pH 4.5. Any excess reactive groups were deactivated by running 1M ethanolamine-HCl over the CM5 chip (again 5 uL/min for 7 mins). The affinities of the anti-CD38, anti-CEA and anti-CD56 dAbs were measured on the biacore as described above.

[6] = molecular target: T3, CD38 immobilised on Biacore CM5 chip; assay: Biacore, CD38 immobilised; lower end of the printed range 330-500 nM (Table 8, affinity maturation experiment)
[7] = molecular target: T3, CD38 immobilised on Biacore CM5 chip; assay: Biacore, CD38 immobilised; upper end of the printed range 330-500 nM (Table 8, affinity maturation experiment)
CD38 on cells = molecular target: T4, CD38 on cells (UniProt P28907 1-300); assay: FACS on RPMI cells (CD38+/138+)
T4 construct: whole, on cells; Endogenous CD38 on cell lines used in FACS or microscopy; also called DOM11; T10
Description: as §2, §1

[8] = molecular target: T3, CD38 immobilised on Biacore CM5 chip; assay: SPR (Biacore) co-injection on immobilised CD38, dAbs at 500 nM
Description: as §3
Epitope mapping was performed to determine whether anti-CD38 dAbs bound to different epitopes on CD38. The assay was performed on BIAcore as described above using a chip coated at medium density (RUs of ˜2000). CD38 was coated on to a CM5 chip at medium density as described above. Using the co-inject function, the first anti-CD38 dAbs was injected at a concentration of 500 nM. Both the first and second anti-CD38 dabs were the co-injected at the same concentration (500 nM). As both dAbs bind different epitopes, the RUs during the second injection increase beyond the level of binding of the first dAb.

CD138 on cells [9] = molecular target: T1, CD138 on cells; assay: FACS on RPMI cells (CD38+/CD138+), dAb at 500 nM
Description: as §2, §1

B4: DOM11-23 (other)
chain: DIQMTQSPSSLSASVGDRVTITCRASQSINVRLIWYQQKPGKDPKLLIYSSSHLQSGVPSRFSGSGSGTDFTLTISSLQPEDFATYYCQQYHYTPFTFGQGTKVEIKR
notes: Anti-CD38 dAb monomer
binding result (CD38 on cells): binds
binding result [8]: binds

B5: DOM12-45 (other)
chain: DIQMTQSPSSLSASVGDRVTITCRASQDIGDRLRWYQQKPGKAPKLLIYHGSRLESGVPSRFSGSRSGTDFTLTISSLQPEDFATYYCQQQWFRPYTFGQGTKVEIKR
notes: Anti-CD138 dAb monomer
binding result (CD138 on cells [9]): binds

Second part, the binder after the results:

percent of cells right of the FL1-H gate line (CD138 on cells [1]): 3%
EC50 [2]: 44.4 nM
B1: DOM11-3/DOM12-45 anti-CD38/anti-CD138 dual specific ligand (bispecific antibody)
chain: DIQMTQSPSSLSASVGDRVTITCRASQNIDSRLSWYQQKPGKAPKLLIYRTSVLQSGVPSRFSGSGSGTDFTLTISSLQPEDFATYYCQQWDMFPLTFGQGTKVEIKRSSGGGGSGGGGSGGGGSGGGGSGGGGSTDIQMTQSPSSLSASVGDRVTITCRASQDIGDRLRWYQQKPGKAPKLLIYHGSRLESGVPSRFSGSRSGTDFTLTISSLQPEDFATYYCQQQWFRPYTFGQGTKVEIKR
notes: In-line fusion of two dAbs, expressed in E. coli; also called DOM11-3/12-45

EC50 (read off the curve) [3]: 100 nM
B2: DOM11-3-15/DOM12-45-1 (bispecific antibody)
chain: B1 chain with T51A, S65T, T97S, K175N, S201N

binding result (CD138 on cells [4]): no binding
Kd [5]: 250 nM
Kd [6]: 330 to 500 nM
Kd [7]: 330 to 500 nM
B3: DOM11-3 (other)
chain: DIQMTQSPSSLSASVGDRVTITCRASQNIDSRLSWYQQKPGKAPKLLIYRTSVLQSGVPSRFSGSGSGTDFTLTISSLQPEDFATYYCQQWDMFPLTFGQGTKVEVK
notes: Anti-CD38 domain antibody (dAb) monomer; also called DOM11-3A
